From patent publication US20250084169A1 (published 2025)
Changes are numbered by the printed parent chain. Where two headings read alike, the source gives them in different places.

T1: recombinant human CD19 (human, UniProt P15391 20-291)
T1 sequence (looked up): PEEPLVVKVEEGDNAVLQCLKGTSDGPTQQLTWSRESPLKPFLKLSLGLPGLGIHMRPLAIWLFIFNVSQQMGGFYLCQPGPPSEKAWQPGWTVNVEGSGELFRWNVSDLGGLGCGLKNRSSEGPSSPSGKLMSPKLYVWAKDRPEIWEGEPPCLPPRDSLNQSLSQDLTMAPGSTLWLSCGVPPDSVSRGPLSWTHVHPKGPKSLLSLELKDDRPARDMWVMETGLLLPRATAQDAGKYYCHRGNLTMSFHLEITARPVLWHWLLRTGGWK

T2: recombinant human Fc gamma RIIa (CD32a) 131H (human, UniProt P12318 36-218)
T2 sequence (looked up): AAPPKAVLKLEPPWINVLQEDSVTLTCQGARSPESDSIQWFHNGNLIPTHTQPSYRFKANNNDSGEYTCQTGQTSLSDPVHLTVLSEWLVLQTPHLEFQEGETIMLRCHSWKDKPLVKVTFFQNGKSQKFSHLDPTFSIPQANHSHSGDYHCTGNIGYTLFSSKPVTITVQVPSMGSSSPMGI

T3: recombinant human Fc gamma RIIa (CD32a) 131R (human, UniProt P12318 36-218)
T3 sequence (looked up): T2 sequence (looked up) with H132R

T4: recombinant human Fc gamma RIIb/c (CD32b/c) (human, UniProt P31994 46-217)
T4 sequence (looked up): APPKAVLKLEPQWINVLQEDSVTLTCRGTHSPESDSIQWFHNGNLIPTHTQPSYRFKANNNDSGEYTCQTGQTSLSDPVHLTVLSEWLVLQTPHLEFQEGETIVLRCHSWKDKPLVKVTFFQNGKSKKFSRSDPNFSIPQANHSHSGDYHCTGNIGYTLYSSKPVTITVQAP

T5: recombinant cynomolgus monkey CD19 (cynomolgus monkey, UniProt A0A2K5W8L9 20-292)
T5 sequence: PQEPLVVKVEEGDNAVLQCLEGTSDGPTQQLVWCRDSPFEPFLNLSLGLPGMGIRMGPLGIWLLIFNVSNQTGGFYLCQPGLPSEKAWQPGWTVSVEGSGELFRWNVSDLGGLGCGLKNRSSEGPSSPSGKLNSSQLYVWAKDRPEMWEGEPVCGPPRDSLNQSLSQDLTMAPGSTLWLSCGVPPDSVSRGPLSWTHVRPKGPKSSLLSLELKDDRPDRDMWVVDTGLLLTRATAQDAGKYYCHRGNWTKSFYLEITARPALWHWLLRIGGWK

T6: human CD19 on cells (human, UniProt P15391 20-556)
T6 sequence (looked up): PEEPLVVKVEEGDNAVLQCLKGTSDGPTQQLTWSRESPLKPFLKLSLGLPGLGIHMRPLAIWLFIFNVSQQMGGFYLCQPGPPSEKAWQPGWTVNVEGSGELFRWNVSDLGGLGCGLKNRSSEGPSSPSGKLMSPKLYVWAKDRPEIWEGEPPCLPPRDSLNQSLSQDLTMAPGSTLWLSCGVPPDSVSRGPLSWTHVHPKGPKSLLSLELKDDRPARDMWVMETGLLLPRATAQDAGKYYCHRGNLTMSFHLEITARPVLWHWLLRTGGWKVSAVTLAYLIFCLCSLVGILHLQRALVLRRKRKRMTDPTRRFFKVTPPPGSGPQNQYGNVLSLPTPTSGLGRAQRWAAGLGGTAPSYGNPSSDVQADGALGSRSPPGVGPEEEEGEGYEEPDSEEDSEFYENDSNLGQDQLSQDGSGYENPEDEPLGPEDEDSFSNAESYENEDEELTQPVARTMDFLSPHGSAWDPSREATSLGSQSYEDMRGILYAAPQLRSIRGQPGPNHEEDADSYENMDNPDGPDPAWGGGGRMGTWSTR

T7: cynomolgus monkey CD19 on cells (cynomolgus monkey, UniProt A0A2K5W8L9 20-557)
T7 sequence: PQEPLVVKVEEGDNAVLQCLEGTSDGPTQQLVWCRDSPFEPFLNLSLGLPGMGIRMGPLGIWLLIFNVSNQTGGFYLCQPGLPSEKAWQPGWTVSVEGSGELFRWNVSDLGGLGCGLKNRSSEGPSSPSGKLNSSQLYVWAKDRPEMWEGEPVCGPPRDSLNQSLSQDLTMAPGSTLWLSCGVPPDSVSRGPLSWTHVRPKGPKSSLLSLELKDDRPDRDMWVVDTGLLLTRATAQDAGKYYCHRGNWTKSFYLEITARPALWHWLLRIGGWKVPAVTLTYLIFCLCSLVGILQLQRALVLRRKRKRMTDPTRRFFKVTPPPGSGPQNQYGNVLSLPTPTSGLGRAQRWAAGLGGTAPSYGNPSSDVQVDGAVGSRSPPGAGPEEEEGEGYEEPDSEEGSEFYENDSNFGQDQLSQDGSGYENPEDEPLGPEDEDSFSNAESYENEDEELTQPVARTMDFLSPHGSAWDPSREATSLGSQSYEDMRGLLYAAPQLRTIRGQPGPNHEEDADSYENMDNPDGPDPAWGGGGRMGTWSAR

T8: CD20 Lipoparticles (Homo sapiens (Human), UniProt P11836 1-297)
T8 sequence: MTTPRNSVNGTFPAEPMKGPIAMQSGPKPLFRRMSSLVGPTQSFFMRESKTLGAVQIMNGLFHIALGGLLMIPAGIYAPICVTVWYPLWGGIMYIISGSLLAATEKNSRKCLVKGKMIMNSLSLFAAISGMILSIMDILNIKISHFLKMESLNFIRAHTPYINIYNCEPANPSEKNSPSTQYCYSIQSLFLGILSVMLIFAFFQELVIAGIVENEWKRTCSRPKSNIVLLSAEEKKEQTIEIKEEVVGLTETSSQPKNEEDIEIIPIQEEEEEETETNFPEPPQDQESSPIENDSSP

T9: recombinant human full-length CD20 (human, UniProt P11836 1-297)
T9 sequence (looked up): T8 sequence

T10: recombinant cynomolgus monkey CD20 (cynomolgus monkey, UniProt M4ZHZ6 1-297)
T10 sequence: T8 sequence with S25P, F31L, T51A, A157V, K217R, N226S, I227V, T239V

T11: cynomolgus monkey CD20 on cells (cynomolgus monkey, UniProt M4ZHZ6 1-297)
T11 sequence: T8 sequence with S25P, F31L, T51A, A157V, K217R, N226S, I227V, T239V

B1: Tafasitamab-cxix (research grade biosimilar) (antibody, human IgG1, kappa)
heavy: EVQLVESGGGLVKPGGSLKLSCAASGYTFTSYVMHWVRQAPGKGLEWIGYINPYNDGTKYNEKFQGRVTISSDKSISTAYMELSSLRSEDTAMYYCARGTYYYGTRVFDYWGQGTLVTVSSASTKGPSVFPLAPSSKSTSGGTAALGCLVKDYFPEPVTVSWNSGALTSGVHTFPAVLQSSGLYSLSSVVTVPSSSLGTQTYICNVNHKPSNTKVDKKVEPKSCDKTHTCPPCPAPELLGGPDVFLFPPKPKDTLMISRTPEVTCVVVDVSHEDPEVQFNWYVDGVEVHNAKTKPREEQFNSTFRVVSVLTVVHQDWLNGKEYKCKVSNKALPAPEEKTISKTKGQPREPQVYTLPPSREEMTKNQVSLTCLVKGFYPSDIAVEWESNGQPENNYKTTPPMLDSDGSFFLYSKLTVDKSRWQQGNVFSCSVMHEALHNHYTQKSLSLSPG
light: DIVMTQSPATLSLSPGERATLSCRSSKSLQNVNGNTYLYWFQQKPGQSPQLLIYRMSNLNSGVPDRFSGSGSGTEFTLTISSLEPEDFAVYYCMQHLEYPITFGAGTKLEIKRTVAAPSVFIFPPSDEQLKSGTASVVCLLNNFYPREAKVQWKVDNALQSGNSQESVTEQDSKDSTYSLSSTLTLSKADYEKHKVYACEVTHQGLSSPVTKSFNRGEC
B2: Rituximab (antibody)
VH: not shown
VL: QIVLSQSPAILSASPGEKVTMTCRASSSVSYIHWFQQKPGSSPKPWIYATSNLASGVPVRFSGSGSGTSYSLTISRVEAEDAATYYCQQWTSNPPTFGGGTKLEIKRTVAAPSVFIFPPSDEQLKSGTASVVCLLNNFYPREAKVQWKVDNALQSGNSQESVTEQDSKDSTYSLSSTLTLSKADYEKHKVYACEVTHQGLSSPVTKSFNRGEC

Experiments:
recombinant human CD19 = biological target: T1, recombinant human CD19
[1] = biological target: T12, recombinant human Fc gamma RIIIa (CD16a) 158F (human, UniProt P08637 17-208)
T12 sequence (P08637 17-208 limits assumed): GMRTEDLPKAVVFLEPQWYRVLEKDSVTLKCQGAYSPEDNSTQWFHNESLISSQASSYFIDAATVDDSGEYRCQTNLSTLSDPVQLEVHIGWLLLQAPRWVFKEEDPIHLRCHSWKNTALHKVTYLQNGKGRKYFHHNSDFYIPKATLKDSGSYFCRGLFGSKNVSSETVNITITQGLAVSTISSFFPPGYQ

[2] = biological target: T13, recombinant human Fc gamma RIIIa (CD16a) 158V (human, UniProt P08637 17-208)
T13 sequence (P08637 17-208 F176V limits assumed): as the sequence (P08637 17-208 limits assumed) above, with F160V counted along it

[3] = biological target: T14, recombinant human Fc gamma RIIIb (CD16b) (human, UniProt O75015 17-200)
T14 sequence (O75015 17-200 limits assumed): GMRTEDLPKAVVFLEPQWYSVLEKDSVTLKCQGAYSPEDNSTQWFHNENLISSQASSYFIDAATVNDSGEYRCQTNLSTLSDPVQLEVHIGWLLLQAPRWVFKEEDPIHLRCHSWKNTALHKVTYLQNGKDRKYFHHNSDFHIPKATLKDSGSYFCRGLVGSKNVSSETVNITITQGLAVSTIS

[4] = biological target: T2, recombinant human Fc gamma RIIa (CD32a) …
[5] = biological target: T3, recombinant human Fc gamma RIIa (CD32a) …
[6] = biological target: T4, recombinant human Fc gamma RIIb/c …
[7] = biological target: T15, recombinant human Fc gamma RI (CD64) (human, UniProt P12314 16-288)
T15 sequence (P12314 16-288 limits assumed): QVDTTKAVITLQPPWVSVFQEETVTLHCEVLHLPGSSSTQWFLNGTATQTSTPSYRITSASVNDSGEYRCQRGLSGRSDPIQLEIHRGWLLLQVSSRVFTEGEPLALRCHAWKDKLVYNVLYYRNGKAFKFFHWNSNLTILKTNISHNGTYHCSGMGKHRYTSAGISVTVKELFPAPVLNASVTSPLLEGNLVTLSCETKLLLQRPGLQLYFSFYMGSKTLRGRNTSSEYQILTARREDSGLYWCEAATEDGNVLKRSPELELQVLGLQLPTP

[8] = biological target: T16, cynomolgus monkey Fc gamma receptor CD16 (cynomolgus monkey, UniProt Q8SPW2 17-208)
T16 sequence (Q8SPW2 17-208 limits assumed): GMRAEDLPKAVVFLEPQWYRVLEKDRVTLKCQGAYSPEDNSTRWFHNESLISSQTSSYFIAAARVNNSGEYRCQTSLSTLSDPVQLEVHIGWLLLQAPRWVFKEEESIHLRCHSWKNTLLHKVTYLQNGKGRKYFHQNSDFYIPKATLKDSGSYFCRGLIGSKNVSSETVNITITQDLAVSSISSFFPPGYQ

[9] = biological target: T17, cynomolgus monkey Fc gamma receptor CD32a (cynomolgus monkey)
[10] = biological target: T18, cynomolgus monkey Fc gamma receptor CD32b (cynomolgus monkey)
[11] = biological target: T16, cynomolgus monkey Fc gamma receptor CD16; remark: listed apart in the source
[12] = biological target: T17, cynomolgus monkey Fc gamma receptor …; remark: listed apart in the source
[13] = biological target: T18, cynomolgus monkey Fc gamma receptor …; remark: listed apart in the source
[14] = biological target: T5, recombinant cynomolgus monkey CD19
human CD19 on cells = biological target: T6, human CD19 on cells
[15] = biological target: T7, cynomolgus monkey CD19 on cells
[16] = biological target: T12, recombinant human Fc gamma RIIIa …; remark: listed apart in the source
[17] = biological target: T13, recombinant human Fc gamma RIIIa …; remark: listed apart in the source
[18] = biological target: T14, recombinant human Fc gamma RIIIb (CD16b); remark: listed apart in the source
[19] = biological target: T3, recombinant human Fc gamma RIIa (CD32a) …; remark: listed apart in the source
[20] = biological target: T4, recombinant human Fc gamma RIIb/c …; remark: listed apart in the source
[21] = biological target: T15, recombinant human Fc gamma RI (CD64); remark: listed apart in the source
[22] = biological target: T13, recombinant human Fc gamma RIIIa …; remark: listed apart in the source
[23] = biological target: T14, recombinant human Fc gamma RIIIb (CD16b); remark: listed apart in the source
[24] = biological target: T2, recombinant human Fc gamma RIIa (CD32a) …; remark: listed apart in the source
[25] = biological target: T3, recombinant human Fc gamma RIIa (CD32a) …; remark: listed apart in the source
[26] = biological target: T4, recombinant human Fc gamma RIIb/c …; remark: listed apart in the source
[27] = biological target: T15, recombinant human Fc gamma RI (CD64); remark: listed apart in the source
CD20 Lipoparticles = biological target: T8, CD20 Lipoparticles
[28] = biological target: T9, recombinant human full-length CD20
[29] = biological target: T10, recombinant cynomolgus monkey CD20
[30] = biological target: T11, cynomolgus monkey CD20 on cells

Binder	Kd [1] [nM]	Kd [2] [nM]	Kd [3] [nM]	Kd [4] [nM]	Kd [5] [nM]	Kd [6] [nM]	Kd [7] [nM]	Kd [8] [nM]	Kd [11] [nM]	Kd [16] [nM]	Kd [17] [nM]	Kd [18] [nM]	Kd [19] [nM]	Kd [20] [nM]	Kd [21] [nM]	other results
B1	121	88.9	176	231	203	234	5.6	49.5	1.34	15.3	4.19	62.1	39.1	99.4	< 0.02	Kd (recombinant human CD19): 1.4 nM; Kd [9]: 181 nM; Kd [10]: 152 nM; Kd [12]: 76.2 nM; Kd [13]: 53 nM; Kd [14]: 1800 nM; EC50 (human CD19 on cells): 1 nM; EC50 [15]: 57 nM
B2	1530	595	4090	1740	2330	6680	11.3	425	130	1520	309	4320	635	8880	0.0547	Kd [22]: 715 nM; Kd [23]: 1530 nM; Kd [24]: 892 nM; Kd [25]: 1250 nM; Kd [26]: 1520 nM; Kd [27]: 52.8 nM; Kd (CD20 Lipoparticles): < 0.001 nM; Kd [28]: 0.46 nM; Kd [29]: 1.1 nM; EC50 [30]: 0.61 nM
